Source: patent US20030224390A1, “Method of identifying conformation-sensitive binding peptides and uses thereof” (Karo Bio AB, priority 2000, published 2003)
Numbering of substitutions follows the chain as printed.

What was measured:
estrogen receptor (ER) α = molecular target: T1, estrogen receptor (ER) α (Homo sapiens, UniProt P03372); test: Yeast two-hybrid screening of LXXLL peptide library, ligand induced β-galactosidase activity (FIG. 1, Table 501); type: cell-based; conditions: with and without estradiol
T1 construct: expressed in transfected cells; host or cells: Saccharomyces cerevisiae PJ69-α
T1 sequence (P03372 1-595): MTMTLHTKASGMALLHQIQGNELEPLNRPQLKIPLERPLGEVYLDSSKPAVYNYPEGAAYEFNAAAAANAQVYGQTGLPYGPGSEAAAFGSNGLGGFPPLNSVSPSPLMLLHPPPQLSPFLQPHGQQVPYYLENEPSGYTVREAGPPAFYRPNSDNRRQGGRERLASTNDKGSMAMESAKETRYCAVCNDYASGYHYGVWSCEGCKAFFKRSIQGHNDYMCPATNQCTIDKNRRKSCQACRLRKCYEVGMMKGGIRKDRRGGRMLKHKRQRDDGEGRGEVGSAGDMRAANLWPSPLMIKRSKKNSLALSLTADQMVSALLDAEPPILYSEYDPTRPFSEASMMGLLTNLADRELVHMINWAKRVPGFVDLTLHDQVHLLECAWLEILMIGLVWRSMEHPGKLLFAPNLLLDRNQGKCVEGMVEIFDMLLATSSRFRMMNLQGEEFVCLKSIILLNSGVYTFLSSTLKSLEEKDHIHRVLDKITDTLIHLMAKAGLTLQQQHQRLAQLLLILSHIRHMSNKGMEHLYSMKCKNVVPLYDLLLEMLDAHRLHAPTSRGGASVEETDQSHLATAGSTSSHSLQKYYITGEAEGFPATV
Text: A directed peptide library (X5LXXLLX5, SEQ ID NO:264) containing the LXXLL motif (previously identified as common in peptides binding estrogen receptor) as a carboxy-terminal fusion to the Gal4 DNA binding domain was constructed with an overall complexity of […] independent peptides. The LXXLL motif library peptides were encoded by the degenerate DNA sequence (NNK)5TTA(NNK)2(TTA)2(NNK)5 (SEQ ID NO:265); TTA is the preferred Leu codon in yeast. NNK encodes a stop codon so a few of the peptides generated will be shorter than 15 a.a. The shortest interacting peptides will likely be 10-mers. This library was transformed into the Saccharomyces cerevisiae PJ69-α yeast strain expressing estrogen receptor (ER) α as a carboxy-terminal fusion to the Gal4 activation domain. […] Those colonies able to grow by inducing the integrated GAL4 driven HIS3 reporter were transferred into 0.25 ml of rich media in a 0.5 ml block.
Cells were pelleted by centrifugation, the media removed and the cells lysed with buffer containing 2.5% CHAPS (3-(3-Cholamidopropyl) dimethyl ammonio-1-propanesulfonate) detergent. A preliminary OD600 was determined to normalize β-galactosidase activity of each well with cell density. […] Yeast clones that generated a value equal to or greater than 0.5 were verified using the same method. Verified clones were then subjected to a final test of ligand induced β-galactosidase activity. […] Ten clones displaying the greatest ligand induced β-galactosidase activity were studied further.
Plasmids containing the peptides were isolated from the yeast cells and the amino acid sequences (Table 501) deduced by DNA sequencing of the library inserts. In Table 501, the underlined sequence is encoded by vector DNA, and the “*” represents the endogenous stop codon of the vector, and is downstream of the cloning site. Several peptides contain the vector-encoded LDLQPS (SEQ ID NO:266) sequence. B5H10 is believed to be the result of a double insert, with the second part being encoded by the complementary sequence. Peptides B1A1 and B1G8 were shorter than the other isolates because the clones encoding them carry a premature stop codon, which is inherent in the NNK library. Because of a frame shift, neither peptide B6A1 nor B3E2 contained the sequence encoded by vector DNA.

ERβ = ERβ (Homo sapiens, UniProt Q92731); test: Phage ELISA fingerprint: peptide binding to immobilized ER β with modulator present (Table 14B)
[1] = molecular target: T2, estrogen receptor (ER) α as a carboxy-terminal fusion to the Gal4 activation domain (yeast, UniProt P03372 1-595, limits assumed); test: cell-based or functional assay
T2 sequence (looked up): T1 sequence (P03372 1-595)

[2] = molecular target: T3, Gal4 transcriptional activation domain (AD) fused in frame with AR (pGAD-C2) (yeast), P10275; test: cell-based or functional assay
T3 chain: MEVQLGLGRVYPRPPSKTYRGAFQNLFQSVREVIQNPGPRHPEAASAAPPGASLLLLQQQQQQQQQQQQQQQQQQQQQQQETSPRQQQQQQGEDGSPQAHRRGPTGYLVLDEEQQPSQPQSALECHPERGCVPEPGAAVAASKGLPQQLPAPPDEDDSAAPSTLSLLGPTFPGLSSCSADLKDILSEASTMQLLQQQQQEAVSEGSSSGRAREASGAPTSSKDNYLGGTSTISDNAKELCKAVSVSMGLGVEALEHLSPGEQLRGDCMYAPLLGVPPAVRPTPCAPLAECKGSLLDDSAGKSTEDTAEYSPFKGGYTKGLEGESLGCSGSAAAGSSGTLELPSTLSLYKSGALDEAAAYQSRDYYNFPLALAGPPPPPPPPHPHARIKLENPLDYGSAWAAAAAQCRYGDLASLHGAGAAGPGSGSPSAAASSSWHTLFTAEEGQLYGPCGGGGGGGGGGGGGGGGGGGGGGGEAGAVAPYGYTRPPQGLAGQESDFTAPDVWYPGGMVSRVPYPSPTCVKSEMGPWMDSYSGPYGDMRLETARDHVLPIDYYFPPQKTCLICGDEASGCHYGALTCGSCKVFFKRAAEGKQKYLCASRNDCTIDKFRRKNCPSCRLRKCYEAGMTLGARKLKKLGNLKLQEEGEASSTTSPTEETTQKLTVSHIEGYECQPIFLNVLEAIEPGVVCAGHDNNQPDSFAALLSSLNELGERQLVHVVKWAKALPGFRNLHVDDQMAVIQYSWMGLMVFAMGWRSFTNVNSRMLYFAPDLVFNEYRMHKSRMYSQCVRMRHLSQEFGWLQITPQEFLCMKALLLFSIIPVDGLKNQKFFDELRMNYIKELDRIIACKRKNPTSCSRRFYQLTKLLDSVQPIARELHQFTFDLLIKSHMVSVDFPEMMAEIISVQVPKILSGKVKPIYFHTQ

[3] = molecular target: T4, pVP16-AR (VP16 activation domain fused to androgen receptor), P10275; test: cell-based or functional assay
T4 chain: T3 chain

Chain of ERβ (Q92731 whole entry, species assumed, the tested form may be a part): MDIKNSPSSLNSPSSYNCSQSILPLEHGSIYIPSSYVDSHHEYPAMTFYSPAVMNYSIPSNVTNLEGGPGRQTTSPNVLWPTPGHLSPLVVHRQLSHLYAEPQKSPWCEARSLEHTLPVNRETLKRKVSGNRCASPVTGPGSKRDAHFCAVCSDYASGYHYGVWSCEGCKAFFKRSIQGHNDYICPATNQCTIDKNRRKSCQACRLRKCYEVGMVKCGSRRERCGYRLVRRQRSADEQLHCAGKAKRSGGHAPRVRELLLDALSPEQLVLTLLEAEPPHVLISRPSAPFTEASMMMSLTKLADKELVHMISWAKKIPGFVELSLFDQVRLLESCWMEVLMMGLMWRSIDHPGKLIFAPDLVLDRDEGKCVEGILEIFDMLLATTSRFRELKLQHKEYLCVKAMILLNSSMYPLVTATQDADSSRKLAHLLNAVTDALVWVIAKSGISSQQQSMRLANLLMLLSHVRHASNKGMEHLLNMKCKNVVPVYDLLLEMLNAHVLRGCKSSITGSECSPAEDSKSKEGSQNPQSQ

EFCPVGLLVHLLMQ* [B1A1]
Fold Induction (ligand induced β-galactosidase activity) (estrogen receptor (ER) α): 11

EFFRATHLLRLLRTDSALDLQPS* [B6F3]
Fold Induction (ligand induced β-galactosidase activity) (estrogen receptor (ER) α): 3

EFFRLRRLDRLLQDSFLLDLQPS* [B2G1]
Fold Induction (ligand induced β-galactosidase activity) (estrogen receptor (ER) α): 12

EFGCSAILRYLLRSPRDLDLQPS* [B5A2]
Fold Induction (ligand induced β-galactosidase activity) (estrogen receptor (ER) α): 2.5

EFGGSVLLRELLCCYDALEPTTTR [B3E2]
Fold Induction (ligand induced β-galactosidase activity) (estrogen receptor (ER) α): 3

EFSGVPILHMLLMLPSSLDLQOPS* [B4F6]
Fold Induction (ligand induced β-galactosidase activity) (estrogen receptor (ER) α): 5

EFSPPSSLLALLLGGKSLEPLPIRYKNVKRQFTSNSRGSVDLQPS [B5H10]
Fold Induction (ligand induced β-galactosidase activity) (estrogen receptor (ER) α): 4.5

EFTGSRLLLKLLRFPDSSTCSQA [B6A1]
Fold Induction (ligand induced β-galactosidase activity) (estrogen receptor (ER) α): 3.5

EFTSVSRLVTLLLQ* [B1G8]
Fold Induction (ligand induced β-galactosidase activity) (estrogen receptor (ER) α): 6

SSEACVGRWMLCEQLGVSR [12Bβ]
Class Specific Fingerprint on ERβ: peptide binding, Nafoxidine present (ERβ; nafoxidine (10 μM)): 5

SSNHQSSRLIELLSR [#4 ER./E2]
Class Specific Fingerprint on ERβ: peptide binding, 4-OH Tamoxifen present (ERβ; 4-OH tamoxifen (1 μM)): 0 | Class Specific Fingerprint on ERβ: peptide binding, ICI 182,780 present (ERβ; ICI 182,780 (1 μM)): 0 | Class Specific Fingerprint on ERβ: peptide binding, Clomiphene present (ERβ; clomiphene (10 μM)): 0 | Class Specific Fingerprint on ERβ: peptide binding, Raloxifene present (ERβ; raloxifene (1 μM)): 0

B1: B1A1 (peptide)
chain: MKLLSSIEQACDICRLKKLKCSKEKPKCAKCLKNNWECRYSPKTKRSPLTRAHLTEVESRLERLEQLFLLIFPREDLDMILKMDSLQDIKALLTGLFVQDNVNKDAVTDRLASVETDMPLTLRQHRISATSSSEESSNKGQRQLTVSEFCPVGLLVHLLMQ
fold induction of β-galactosidase by estradiol, yeast two-hybrid [1]: 11 fold

B2: B1G8 (peptide)
chain: B1 chain with C150T, P151S, G153S, L154R, H157T, M160L
fold induction of β-galactosidase by estradiol, yeast two-hybrid [1]: 6 fold

B3: B8H3, P04386 1-147 (peptide)
chain: MKLLSSIEQACDICRLKKLKCSKEKPKCAKCLKNNWECRYSPKTKRSPLTRAHLTEVESRLERLEQLFLLIFPREDLDMILKMDSLQDIKALLTGLFVQDNVNKDAVTDRLASVETDMPLTLRQHRISATSSSEESSNKGQRQLTVSEFHSRLRVEVVSWGIGSTCSQANSGRISYDL
modifications: not checked
Fold induction, yeast two-hybrid [2]: 22 fold | β-galactosidase activity, yeast two-hybrid; CPA [2]: 0.393 | β-galactosidase activity, yeast two-hybrid; DHT [2]: 3.81 | β-galactosidase activity, yeast two-hybrid; No Lig [2]: 0.174 | β-galactosidase activity, yeast two-hybrid; RU [2]: 0 | normalized luciferase activity, mammalian two-hybrid; CYP. [3]: 10.5 | normalized luciferase activity, mammalian two-hybrid; DHT [3]: 11.6 | normalized luciferase activity, mammalian two-hybrid; MPA [3]: 11.3 | normalized luciferase activity, mammalian two-hybrid; RU486 [3]: 3.88 | normalized luciferase activity, mammalian two-hybrid; no compound [3]: 0.132

B4: B6F3 (peptide)
chain: MKLLSSIEQACDICRLKKLKCSKEKPKCAKCLKNNWECRYSPKTKRSPLTRAHLTEVESRLERLEQLFLLIFPREDLDMILKMDSLQDIKALLTGLFVQDNVNKDAVTDRLASVETDMPLTLRQHRISATSSSEESSNKGQRQLTVSEFFRATHLLRLLRTDSALDLQPS
fold induction of β-galactosidase by estradiol, yeast two-hybrid [1]: 3 fold

B5: B2G1 (peptide)
chain: B4 chain with A152L, T153R, H154R, L156D, R160Q, T161D, D162S, S163F, A164L
fold induction of β-galactosidase by estradiol, yeast two-hybrid [1]: 12 fold

B6: B5A2 (peptide)
chain: MKLLSSIEQACDICRLKKLKCSKEKPKCAKCLKNNWECRYSPKTKRSPLTRAHLTEVESRLERLEQLFLLIFPREDLDMILKMDSLQDIKALLTGLFVQDNVNKDAVTDRLASVETDMPLTLRQHRISATSSSEESSNKGQRQLTVSEFGCSAILRYLLRSPRDLDLQPS
fold induction of β-galactosidase by estradiol, yeast two-hybrid [1]: 2.5 fold

B7: B6C4 (peptide)
chain: B6 chain with G150D, C151R, A153S, R156V, Y157S, R160S, S161M, P162V, R163E, D164T
fold induction of β-galactosidase by estradiol, yeast two-hybrid [1]: ≥ 2 fold

B8: B4F6 (peptide)
chain: B6 chain with G150S, C151G, S152V, A153P, R156H, Y157M, R160M, S161L, R163S, D164S
fold induction of β-galactosidase by estradiol, yeast two-hybrid [1]: 5 fold

B9: B6A1 (peptide)
chain: MKLLSSIEQACDICRLKKLKCSKEKPKCAKCLKNNWECRYSPKTKRSPLTRAHLTEVESRLERLEQLFLLIFPREDLDMILKMDSLQDIKALLTGLFVQDNVNKDAVTDRLASVETDMPLTLRQHRISATSSSEESSNKGQRQLTVSEFTGSRLLLKLLRFPDSSTCSQA
fold induction of β-galactosidase by estradiol, yeast two-hybrid [1]: 3.5 fold

B10: B3E2 (peptide)
chain: MKLLSSIEQACDICRLKKLKCSKEKPKCAKCLKNNWECRYSPKTKRSPLTRAHLTEVESRLERLEQLFLLIFPREDLDMILKMDSLQDIKALLTGLFVQDNVNKDAVTDRLASVETDMPLTLRQHRISATSSSEESSNKGQRQLTVSEFGGSVLLRELLCCYDALEPTTTR
fold induction of β-galactosidase by estradiol, yeast two-hybrid [1]: 3 fold

B11: B8E9, P04386 1-147 (peptide)
chain: MKLLSSIEQACDICRLKKLKCSKEKPKCAKCLKNNWECRYSPKTKRSPLTRAHLTEVESRLERLEQLFLLIFPREDLDMILKMDSLQDIKALLTGLFVQDNVNKDAVTDRLASVETDMPLTLRQHRISATSSSEESSNKGQRQLTVSEFQQCMCAEVKSWLGGSLDLQPS
modifications: not checked
Fold induction, yeast two-hybrid [2]: 4 fold | β-galactosidase activity, yeast two-hybrid; CPA [2]: 0.563 | β-galactosidase activity, yeast two-hybrid; DHT [2]: 1.75 | β-galactosidase activity, yeast two-hybrid; No Lig [2]: 0.499 | β-galactosidase activity, yeast two-hybrid; RU [2]: 0.8 | normalized luciferase activity, mammalian two-hybrid; CYP. [3]: 16 | normalized luciferase activity, mammalian two-hybrid; DHT [3]: 19.6 | normalized luciferase activity, mammalian two-hybrid; MPA [3]: 18.5 | normalized luciferase activity, mammalian two-hybrid; RU486 [3]: 10.2 | normalized luciferase activity, mammalian two-hybrid; no compound [3]: 0.209

B12: B5H10 (peptide)
chain: MKLLSSIEQACDICRLKKLKCSKEKPKCAKCLKNNWECRYSPKTKRSPLTRAHLTEVESRLERLEQLFLLIFPREDLDMILKMDSLQDIKALLTGLFVQDNVNKDAVTDRLASVETDMPLTLRQHRISATSSSEESSNKGQRQLTVSEFSPPSSLLALLLGGKSLEPLPIRYKNVKRQFTSNSRGSVDLQPS
fold induction of β-galactosidase by estradiol, yeast two-hybrid [1]: 4.5 fold
